# Measurements from publication PMC9352680, “A comprehensive thermodynamic model for RNA binding by the Saccharomyces cerevisiae Pumilio protein PUF4”.
# T1: PUF4 RNA-binding domain (Saccharomyces cerevisiae, UniProt P25339 537-888)
# T1 sequence: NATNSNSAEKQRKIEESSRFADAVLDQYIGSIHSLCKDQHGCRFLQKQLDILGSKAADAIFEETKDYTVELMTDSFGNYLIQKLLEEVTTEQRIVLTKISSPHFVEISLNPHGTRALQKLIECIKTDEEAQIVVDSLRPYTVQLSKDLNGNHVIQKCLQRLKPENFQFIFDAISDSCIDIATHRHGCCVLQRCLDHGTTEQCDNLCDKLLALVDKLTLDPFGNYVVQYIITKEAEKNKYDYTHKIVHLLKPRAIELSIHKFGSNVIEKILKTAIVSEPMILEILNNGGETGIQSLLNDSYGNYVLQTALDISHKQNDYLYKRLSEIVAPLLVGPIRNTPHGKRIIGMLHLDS
# Biological target: T1, PUF4 RNA-binding domain
# Test: Mg; RNA-MaP; 20 mM Na-HEPES pH 7.4, 30 mM KOAc, 0.75 mM MgCl2, 0.1% Tween-20, 5% glycerol, 0.1 mg/mL BSA, 2 mM DTT; 25 C; 0.0125-409.6 nM protein
# Conditions: tags: N-His6-TEV cleaved; C-SNAP kept, Cy3B-labelled; label: tethered on chip by stalled RNA polymerase
row,Binder,Kd [nM]
1,UCUCUUUGUAUCUUGUCUCUU (ssRNA) [Ib_S1_P4E.1_K4.1_C4.1_H4.1_A4.1_[A6C]_F4.1_[A9G]_T4.1],25.9
2,UCUCUUUGUAUUUUGUCUCUU (ssRNA) [Ic_S1_P4E.1_K4.1_C4.1_H4.1_A4.1_[A6T]_F4.1_[A9G]_T4.1],15.2
3,UCUCUUUGUAUGUUGUCUCUU (ssRNA) [Ib_S1_P4E.1_K4.1_C4.1_H4.1_A4.1_[A6G]_F4.1_[A9G]_T4.1],218
4,Ic_S4_P5E.1_K5.1_C5.1_H5.1_A5.1_[T5C]_F5.1_[T8C]_[T9G]_[A10C]_T5.1 (ssRNA) RNA: UUUGACAACUGAUCGUUCUUUCUUGUACUACGCUUCUUUCUCGAUCAGUUGUCUUU,499
5,Ic_S4_P5E.1_K5.1_C5.1_H5.1_A5.1_[A7T]_F5.1_[T8C]_[T9A]_T5.1 (ssRNA) RNA: UUUGACAACUGAUCGUUCUUUCUUGUAUUUCAAUUCUUUCUCGAUCAGUUGUCUUU,452
6,Ic_S4_P5E.1_K5.1_C5.1_H5.1_A5.1_[T5A]_[T6C]_[A7T]_F5.1_[T8C]_[T9C]_[A10G]_T5.1 (ssRNA) RNA: UUUGACAACUGAUCGUUCUUUCUUGUAACUCCGUUCUUUCUCGAUCAGUUGUCUUU,> 2300
7,Ic_S4_P5E.1_K5.1_C5.1_H5.1_A5.1_[T5C]_[T6C]_F5.1_[T9A]_[A10C]_T5.1 (ssRNA) RNA: UUUGACAACUGAUCGUUCUUUCUUGUACCAUACUUCUUUCUCGAUCAGUUGUCUUU,2.7
8,Ic_S4_P5E.1_K5.1_C5.1_H5.1_A5.1_[T6A]_[A7T]_F5.1_[T8A]_[T9A]_T5.1 (ssRNA) RNA: UUUGACAACUGAUCGUUCUUUCUUGUAUAUAAAUUCUUUCUCGAUCAGUUGUCUUU,3.86
9,Ic_S4_P5E.1_K5.1_C5.1_H5.1_A5.1_[T5A]_[A7C]_F5.1_[T8C]_[T9G]_[A10G]_T5.1 (ssRNA) RNA: UUUGACAACUGAUCGUUCUUUCUUGUAAUCCGGUUCUUUCUCGAUCAGUUGUCUUU,> 2300
10,Ic_S4_P5E.1_K5.1_C5.1_H5.1_A5.1_[T5A]_[A7T]_F5.1_[T9C]_[A10T]_T5.1 (ssRNA) RNA: UUUGACAACUGAUCGUUCUUUCUUGUAAUUUCUUUCUUUCUCGAUCAGUUGUCUUU,32.8
11,Ic_S4_P5E.1_K5.1_C5.1_H5.1_A5.1_[T5C]_[T6G]_[A7T]_F5.1_[T8A]_[T9A]_[A10T]_T5.1 (ssRNA) RNA: UUUGACAACUGAUCGUUCUUUCUUGUACGUAAUUUCUUUCUCGAUCAGUUGUCUUU,67.6
12,Ic_S4_P5E.1_K5.1_C5.1_H5.1_A5.1_[T5C]_[T6A]_[A7C]_F5.1_[T8A]_[T9A]_T5.1 (ssRNA) RNA: UUUGACAACUGAUCGUUCUUUCUUGUACACAAAUUCUUUCUCGAUCAGUUGUCUUU,15.5
13,Ic_S4_P5E.1_K5.1_C5.1_H5.1_A5.1_[T5G]_[A7C]_F5.1_[T8G]_[A10G]_T5.1 (ssRNA) RNA: UUUGACAACUGAUCGUUCUUUCUUGUAGUCGUGUUCUUUCUCGAUCAGUUGUCUUU,486
14,Ic_S4_P5E.1_K5.1_C5.1_H5.1_A5.1_[T5A]_[T6C]_[A7T]_F5.1_[T8G]_[T9C]_[A10T]_T5.1 (ssRNA) RNA: UUUGACAACUGAUCGUUCUUUCUUGUAACUGCUUUCUUUCUCGAUCAGUUGUCUUU,304
15,Ic_S4_P5E.1_K5.1_C5.1_H5.1_A5.1_[T5C]_[A7T]_F5.1_[T8C]_[T9A]_[A10T]_T5.1 (ssRNA) RNA: UUUGACAACUGAUCGUUCUUUCUUGUACUUCAUUUCUUUCUCGAUCAGUUGUCUUU,103
16,Ic_S4_P5E.1_K5.1_C5.1_H5.1_A5.1_[A7T]_F5.1_[T8C]_[T9G]_[A10T]_T5.1 (ssRNA) RNA: UUUGACAACUGAUCGUUCUUUCUUGUAUUUCGUUUCUUUCUCGAUCAGUUGUCUUU,62.1
17,Ic_S4_P5E.1_K5.1_C5.1_H5.1_A5.1_[T6A]_[A7C]_F5.1_[T8C]_[T9A]_[A10T]_T5.1 (ssRNA) RNA: UUUGACAACUGAUCGUUCUUUCUUGUAUACCAUUUCUUUCUCGAUCAGUUGUCUUU,15.4
18,Ic_S4_P5E.1_K5.1_C5.1_H5.1_A5.1_[T6G]_[A7C]_F5.1_[T8G]_[T9C]_[A10T]_T5.1 (ssRNA) RNA: UUUGACAACUGAUCGUUCUUUCUUGUAUGCGCUUUCUUUCUCGAUCAGUUGUCUUU,542
19,Ic_S4_P5E.1_K5.1_C5.1_H5.1_A5.1_[T5A]_[T6C]_[A7C]_F5.1_[T9A]_[A10G]_T5.1 (ssRNA) RNA: UUUGACAACUGAUCGUUCUUUCUUGUAACCUAGUUCUUUCUCGAUCAGUUGUCUUU,48.7
20,Ic_S4_P5E.1_K5.1_C5.1_H5.1_A5.1_[A7G]_F5.1_[T9C]_[A10T]_T5.1 (ssRNA) RNA: UUUGACAACUGAUCGUUCUUUCUUGUAUUGUCUUUCUUUCUCGAUCAGUUGUCUUU,134
21,Ic_S4_P5E.1_K5.1_C5.1_H5.1_A5.1_[T5C]_[T6C]_F5.1_[T8G]_[A10G]_T5.1 (ssRNA) RNA: UUUGACAACUGAUCGUUCUUUCUUGUACCAGUGUUCUUUCUCGAUCAGUUGUCUUU,124
22,Ic_S4_P5E.1_K5.1_C5.1_H5.1_A5.1_[T5A]_[T6C]_[A7C]_F5.1_[T8C]_[T9A]_[A10T]_T5.1 (ssRNA) RNA: UUUGACAACUGAUCGUUCUUUCUUGUAACCCAUUUCUUUCUCGAUCAGUUGUCUUU,531
23,Ic_S4_P5E.1_K5.1_C5.1_H5.1_A5.1_[T5C]_[T6A]_[A7T]_F5.1_[T8G]_[A10T]_T5.1 (ssRNA) RNA: UUUGACAACUGAUCGUUCUUUCUUGUACAUGUUUUCUUUCUCGAUCAGUUGUCUUU,6.77
24,Ic_S4_P5E.1_K5.1_C5.1_H5.1_A5.1_[T6C]_[A7T]_F5.1_[T8A]_[T9G]_[A10C]_T5.1 (ssRNA) RNA: UUUGACAACUGAUCGUUCUUUCUUGUAUCUAGCUUCUUUCUCGAUCAGUUGUCUUU,47.4
